The test system of assay [1] is mouse eyes. As to the kind of experiment: Intracameral injection of ANGPTL7 protein in mice, IOP measured over time. The class given is in vivo. The procedure: (§1) Isoflurane anesthetized IOPs were measured as previously described. For IOP measurements, mice were anesthetized before IOP was measured in both eyes using a TonoLab rebound tonometer (Colonial Medical Supply, Franconia, N H). IOP measurements for both eyes were completed in 3-5 minutes. IOP in each eye was measured before start of Angptl7 injections and every day afterwards for six days.
A 33-gauge needle with a glass microsyringe (5-4 volume) (Hamilton Company) was used. Before and during injection, mice were anesthetized with isoflurane (2.5%) containing oxygen (0.8 L/min). For topical anesthesia, both eyes received one to two drops of 0.5% proparacaine HCl (Akorn, Inc.). Each eye was proptosed and the needle was inserted through the cornea just above the limbal region and into the anterior chamber at an angle parallel to the cornea, taking care to avoid touching the iris, anterior lens capsule epithelium, or corneal endothelium. Up to 1 μL of ANGPTL7 protein (catalog #4960-AN-025; R&D Systems, Minneapolis, MN) or PBS was injected slowly (over a 30-second period). The needle was then withdrawn. The procedure was performed on both eyes of each animal. Only one injection was administered at day 0.

Assay [2] has as its system mouse eyes. As to the kind of experiment: Intravitreal injection of ANGPTL7 protein in mice, IOP measured over time. The class given is in vivo. The method, then: as §1
A 33-gauge needle with a glass microsyringe (5-4 volume; Hamilton Company) was used. The eye was proptosed, and the needle was inserted through the equatorial sclera and inserted into the vitreous chamber at an angle of approximately 45 degrees, taking care to avoid touching the posterior part of the lens or the retina. ANGPTL7 protein (catalog #4960-AN-025; R&D Systems, Minneapolis, MN) or PBS (1 μL) was injected into the vitreous over the course of 1 minute. The needle was then left in place for a further 45 seconds (to facilitate mixing), before being rapidly withdrawn. Only one injection was administered at day 0.

B1: ANGPTL7 protein: ANGPTL7 protein (catalog #4960-AN-025; R&D Systems), murine Angptl7 protein injected into mouse eyes (protein, UniProt Q8R1Q3 22-337, looked up)
Angiopoietin-related protein 7: QKPHKRKTQLKAAGCCEEMRELKAQVANLSSLLGELSRKQESDWVSVVMQVMELESSSKHMESRLSTAESKYSEMNNQIDIMQLQAAQTVTQTSADAIYDCSSLYQKNYRISGVYKLPPDEFLGSPELEVFCDMETSGGGWTIIQRRKSGLVSFYQDWRQYKQGFGSIRGDFWLGNEHIHRLTRQPSRLRVELEDWEGNARYAEYSYFALGNELNSYRLFLGNYSGNVGKDALLYHNNTVFSTKDKDNDNCLDKCAQLRKGGYWYNCCTDSNLNGVYYRLGEHRKHMDGISWYGWHGANYSLKRVEMKIRPEAFKP
On to B1, for which the “elevation of IOP” value in assay [1] (mice, single intracameral injection at day 0, after an initial drop, starting on day 3 until end of experiment on day 7) is 2-5 mmHg; in assay [2] (mice, single intravitreal injection at day 0, after an initial drop, starting on day 4 until end of experiment on day 7), 4-5 mmHg. The “IOP in Angptl7-treated eyes compared to control eyes” value is recorded as “elevated” in assay [1] (mouse eyes, intracameral route, after an initial drop (FIG. 6B)) and “elevated” in assay [2] (mouse eyes, intravitreal route, after an initial drop (FIG. 6A)). The “elevation of IOP compared to baseline” value in assay [2] (mice, single intravitreal injection at day 0, starting on day 4 until day 7) is given as 22-25%.

The values above are taken from US11845989B2, “Treatment of ophthalmic conditions with angiopoietin-like 7 (ANGPTL7) inhibitors” (Regeneron Pharmaceuticals, Inc., priority 2019, dated 2023).
